Measured values from patent publication US20250346890A1, “LEUKEMIA TREATMENT” (Deutsches Krebsforschungszentrum, priority 2019, published 2025).

Legend:
LGR4 = molecular target: T1, LGR4 (Xenopus tropicalis, UniProt B0BLW3); test: Cell surface binding assay in HEK293T cells transfected with LGR4
T1 construct: expressed in transfected cells; host or cells: HEK293T
T1 sequence (B0BLW3 22-955): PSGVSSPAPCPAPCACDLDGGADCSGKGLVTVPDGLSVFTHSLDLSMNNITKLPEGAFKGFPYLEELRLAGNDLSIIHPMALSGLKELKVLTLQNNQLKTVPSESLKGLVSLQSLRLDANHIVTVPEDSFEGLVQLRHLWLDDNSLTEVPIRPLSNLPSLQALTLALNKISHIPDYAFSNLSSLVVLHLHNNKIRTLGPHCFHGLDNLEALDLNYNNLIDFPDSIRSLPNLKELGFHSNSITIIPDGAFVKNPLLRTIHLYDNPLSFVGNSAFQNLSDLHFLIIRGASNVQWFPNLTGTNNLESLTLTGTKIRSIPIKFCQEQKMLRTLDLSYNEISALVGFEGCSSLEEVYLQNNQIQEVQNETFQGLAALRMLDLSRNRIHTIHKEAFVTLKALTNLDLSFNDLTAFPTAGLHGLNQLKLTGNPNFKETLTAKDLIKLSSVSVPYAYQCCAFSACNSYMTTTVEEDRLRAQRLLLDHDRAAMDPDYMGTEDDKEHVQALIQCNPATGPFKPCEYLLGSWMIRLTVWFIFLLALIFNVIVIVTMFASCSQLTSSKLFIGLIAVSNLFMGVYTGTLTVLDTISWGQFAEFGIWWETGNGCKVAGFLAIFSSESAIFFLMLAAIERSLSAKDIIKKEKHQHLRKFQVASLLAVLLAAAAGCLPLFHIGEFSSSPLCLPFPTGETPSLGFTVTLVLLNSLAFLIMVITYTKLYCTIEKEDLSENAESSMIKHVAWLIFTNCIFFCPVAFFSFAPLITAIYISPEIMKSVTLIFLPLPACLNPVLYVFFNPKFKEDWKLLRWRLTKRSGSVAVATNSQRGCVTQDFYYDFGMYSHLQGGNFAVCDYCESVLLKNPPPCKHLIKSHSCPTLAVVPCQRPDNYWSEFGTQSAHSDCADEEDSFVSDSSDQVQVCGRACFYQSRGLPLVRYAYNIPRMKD
Description: Cell surface binding assays were carried essentially out as previously described (Dosch et al. (1997), Development 124, 2325-2334). In brief, human ALK3-HA and Xenopus tropicalis LGR4 DNA were transfected in HEK293T cells, and incubated with 1.5 U ml^−1 conditioned media for 3 hours on ice. After several washes and crosslinking, cells were treated with 2 mM Levamisole for 20 min to inactivate endogenous AP activities and developed with BM-Purple (Sigma 11442074001). Cells were mounted with Fluoromount G. Images were obtained using LEICA DMIL microscope/Canon DS126311 camera.

THP-1 cells = test: Monocyte-macrophage differentiation of THP-1 cells (FACS / qRT-PCR of CD14, CD11B); assay type: cell-based, human; settings: THP-1 cells, co-treatment of ATRA with RSPO2
Description: Cultured cells were lysed in Macherey-Nagel RAI buffer containing 1% β-mercaptoethanol and total RNAs were isolated using NucleoSpin RNA isolation kit (Macherey-Nagel 740955). Reverse transcription and PCR amplification were performed. Primers used in this study are listed in Supplementary Table 1. Graphs show relative gene expressions to GAPDH. […] Statistical analyses were performed using PRISM7 software with unpaired t-test or one-way ANOVA test.
For analyzing macrophage differentiation of THP-1, cells were harvested, pelleted and resuspended in ice-cold blocking buffer (PBS supplemented with 1% BSA and 0.1% NaN3). Cells were treated with Fc Receptor Binding Inhibitor as recommended by the manufacturer (eBioscience 14916173) and stained directly with FITC/APC-conjugated antibodies diluted in blocking buffer or with non-conjugated primary antibodies followed by fluorochrome-labeled secondary antibodies. Isotype-matched antibodies were used as controls. Dead cells were excluded by counterstaining with propidium iodide. For analyzing apoptosis of THP-1, cells were fixed in 4% PFA, permeabilized by MeOH and blocked with PBS supplemented with 1% BSA and 0.1% Tween-20. Cells were stained with anti-active Caspase-3 antibody and fluorochrome-labeled secondary antibody. FACS Samples were analyzed with FACSCalibur or FACSCanto (BD Biosciences). 10,000 events per samples were acquired, and results were processed with Cell Quest or FACSDiva software (BD Biosciences). For BMP4 stimulation, cells were treated with 5 and 25 ng ml^−1 recombinant human BMP4 protein (R&D systems 314-BP). 100, 300 and 1000 nM LDN […] (Tocris 6053) were used for rescue assay. For the THP-1 cell number quantification and differentiation validation in vivo, bone marrow cells were harvested from tibias of NSG mice and red blood cells were removed by ACK Lysing Buffer (Gibco A1049201). Cells were stained and analyzed as above. Here, 50,000 PI-negative events per samples were acquired.
THP-1 cells were treated with 0.3, 1.0 and 3.0 μg ml^−1 goat polyclonal anti-RSPO2 antibodies (R&D systems AF3266) or goat polyclonal GFP antibodies (ABIN 100085). After 48 hours, medium was replaced including fresh antibodies—and incubated another 24 hours. Western blot analysis and FACS analyses were performed as discussed above.
The sequences of shRSPO2 and shControl (Table 1) were synthesized, inserted into the transfer plasmid Tet-pLKO-puro (Addgene 21915) and validated by sequencing. Lentivirus was produced with the 3rd generation lentiviral system according to the protocol available at the Trono lab as described (www.epfl.ch/labs/tronolab/). THP-1 cells were infected with lentivirus with 8 μg ml^−1 Polybrene (Sigma TR-1003) and selected with 0.5 μg ml^−1 puromycin (Calbiochem 540411). Single cell clones were obtained by limiting dilutions. The shRNA expression of clones was validated by monitoring RSPO2 expression after doxycycline treatment (1.0 μg ml^−1) for 3 days.

B1: RSPO2: human R-spondin 2 protein (SEQ ID NO:1); conditioned medium or recombinant (Peprotech 120-43) (protein, listed as Homo sapiens)
chain: MQFRLFSFALIILNCMDYSHCQGNRWRRSKRASYVSNPICKGCLSCSKDNGCSRCQQKLFFFLRREGMRQYGECLHSCPSGYYGHRAPDMNRCARCRIENCDSCFSKDFCTKCKVGFYLHRGRCFDECPDGFAPLEETMECVEGCEVGHWSEWGTCSRNNRTCGFKWGLETRTRQIVKKPVKDTILCPTIAESRRCKMTMRHCPGGKRTPKAKEKRNKKKKRKLIERAQEQHSVFLATDRANQ
In the case of B1, the LGR binding (LGR4) is reported as “required the FU domains but not TSP1” and the “ATRA-induced Smad1-phosphorylation, ID1 and CD11B expression” value (THP-1 cells) is reported as “reverted these effects”.
